B1: TP53-binding protein 1 (Homo sapiens), Q12888 (parent)
chain: MDPTGSQLDSDFSQQDTPCLIIEDSQPESQVLEDDSGSHFSMLSRHLPNLQTHKENPVLDVVSNPEQTAGEERGDGNSGFNEHLKENKVADPVDSSNLDTCGSISQVIEQLPQPNRTSSVLGMSVESAPAVEEEKGEELEQKEKEKEEDTSGNTTHSLGAEDTASSQLGFGVLELSQSQDVEENTVPYEVDKEQLQSVTTNSGYTRLSDVDANTAIKHEEQSNEDIPIAEQSSKDIPVTAQPSKDVHVVKEQNPPPARSEDMPFSPKASVAAMEAKEQLSAQELMESGLQIQKSPEPEVLSTQEDLFDQSNKTVSSDGCSTPSREEGGCSLASTPATTLHLLQLSGQRSLVQDSLSTNSSDLVAPSPDAFRSTPFIVPSSPTEQEGRQDKPMDTSVLSEEGGEPFQKKLQSGEPVELENPPLLPESTVSPQASTPISQSTPVFPPGSLPIPSQPQFSHDIFIPSPSLEEQSNDGKKDGDMHSSSLTVECSKTSEIEPKNSPEDLGLSLTGDSCKLMLSTSEYSQSPKMESLSSHRIDEDGENTQIEDTEPMSPVLNSKFVPAENDSILMNPAQDGEVQLSQNDDKTKGDDTDTRDDISILATGCKGREETVAEDVCIDLTCDSGSQAVPSPATRSEALSSVLDQEEAMEIKEHHPEEGSSGSEVEEIPETPCESQGEELKEENMESVPLHLSLTETQSQGLCLQKEMPKKECSEAMEVETSVISIDSPQKLAILDQELEHKEQEAWEEATSEDSSVVIVDVKEPSPRVDVSCEPLEGVEKCSDSQSWEDIAPEIEPCAENRLDTKEEKSVEYEGDLKSGTAETEPVEQDSSQPSLPLVRADDPLRLDQELQQPQTQEKTSNSLTEDSKMANAKQLSSDAEAQKLGKPSAHASQSFCESSSETPFHFTLPKEGDIIPPLTGATPPLIGHLKLEPKRHSTPIGISNYPESTIATSDVMSESMVETHDPILGSGKGDSGAAPDVDDKLCLRMKLVSPETEASEESLQFNLEKPATGERKNGSTAVAESVASPQKTMSVLSCICEARQENEARSEDPPTTPIRGNLLHFPSSQGEEEKEKLEGDHTIRQSQQPMKPISPVKDPVSPASQKMVIQGPSSPQGEAMVTDVLEDQKEGRSTNKENPSKALIERPSQNNIGIQTMECSLRVPETVSAATQTIKNVCEQGTSTVDQNFGKQDATVQTERGSGEKPVSAPGDDTESLHSQGEEEFDMPQPPHGHVLHRHMRTIREVRTLVTRVITDVYYVDGTEVERKVTEETEEPIVECQECETEVSPSQTGGSSGDLGDISSFSSKASSLHRTSSGTSLSAMHSSGSSGKGAGPLRGKTSGTEPADFALPSSRGGPGKLSPRKGVSQTGTPVCEEDGDAGLGIRQGGKAPVTPRGRGRRGRPPSRTTGTRETAVPGPLGIEDISPNLSPDDKSFSRVVPRVPDSTRRTDVGAGALRRSDSPEIPFQAAAGPSDGLDASSPGNSFVGLRVVAKWSSNGYFYSGKITRDVGAGKYKLLFDDGYECDVLGKDILLCDPIPLDTEVTALSEDEYFSAGVVKGHRKESGELYYSIEKEGQRKWYKRMAVILSLEQGNRLREQYGLGPYEAVTPLTKAADISLDNLVEGKRKRRSNVSSPATPTASSSSSTTPTRKITESPRASMGVLSGKRKLITSEEERSPAKRGRKSATVKPGAVGAGEFVSPCESGDNTGEPSALEEQRGPLPLNKTLFLGYAFLLTMATTSDKLASRSKLPDGPTGSSEEEEEFLEIPPFNKQYTESQLRAGAGYILEDFNEAQCNTAYQCLLIADQHCRTRKYFLCLASGIPCVSHVWVHDSCHANQLQNYRNYLLPAGYSLEEQRILDWQPRENPFQNLKVLLVSDQQQNFLELWSEILMTGGAASVKQHHSSAHNKDIALGVFDVVVTDPSCPASVLKCAEALQLPVVSQEWVIQCLIVGERIGFKQHPKYKHDYVSH

Variants of: B1
Details: with h4_human H4C16, P62805

| Variant | effect of a mutation on the interaction |
| --- | --- |
| D1521R | disrupting interaction strength |
